Data reported in patent publication US20230321241A1, “CANCER PEPTIDE VACCINE AND METHOD OF PREPARING THE SAME” (BrightPath Biotherapeutics Co., Ltd., priority 2020, published 2023).
Where a SMILES comes first, the peptide text is derived from it. Where no end group is shown, it is not given here.

How the values were obtained:
Type in all cases: physicochemical
[1] = Test Example 2: solubility of SEQ ID NO: 1 in glycine-HCl buffers; details: for result (solubility): 270 mM trehalose, 24 hours
Procedure: The solubility of the peptide drug substance of SEQ ID NO: 1 (purity 95 w/w % or more, PPL) was examined as described below. First, 10 to 500 mM glycine-HCl buffers containing 270 mM trehalose from pH 2.5 to 3.5 were prepared, and the peptide drug substance was added to 2 mL of each buffer so that the peptide concentration was 10 to 25 mg/mL.

[2] = Example 1: peptide cocktail preparation standing at room temperature for 6 hours; details: for HPLC analysis: peptide concentration: in peptide cocktail preparation of Example 1 (with GM-CSF); for HPLC analysis: % vs T0: in peptide cocktail preparation of Example 1, T = 6 hours
Procedure: Using the lyophilized peptide preparations produced in Preparation Example 1, a peptide cocktail preparation to be administered was prepared as follows. First, 1 mL of purified water was added to each lyophilized peptide preparation, and the lyophilized product in the vial was dissolved to prepare a peptide solution. All the peptide solutions were collected from the respective vials and transferred to a different vial to provide a peptide cocktail preparation. Also, a GM-CSF lyophilized preparation (product name: Lukine ([…]), Sanofi) was dissolved in 1 mL of purified water and 0.6 mL of the solution thus obtained was added as an adjuvant to 1.4 mL of the peptide cocktail preparation to provide a peptide cocktail preparation to be administered. Then, the peptide cocktail preparation thus obtained was allowed to stand at room temperature for 6 hours, and evaluated for changes in peptide concentration, pH (25° C.), and osmotic pressure compared with those before standing.

[3] = Test Example 1: examination of peptide solubility in citrate/phosphate buffers; details: for result (whether peptide drug substance was dissolved): room temperature 24 hours
Procedure: The solubility of a peptide drug substance (purity 95 w/w % or more, PPL) was examined for the peptides Asn-Val-Leu-His-Phe-Phe-Asn-Ala-Pro-Leu (SEQ ID NO: 1), Ala-Ser-Leu-Asp-Ser-Asp-Pro-Trp-Val (SEQ ID NO: 2), Lys-Leu-Lys-His-Tyr-Gly-Pro-Gly-Trp-Val (SEQ ID NO: 3), and Leu-Leu-Gln-Ala-Glu-Ala-Pro-Arg-Leu (SEQ ID NO: 4), respectively. First, 10 mM citrate buffers (Citrate) or phosphate buffers (Phosphate) containing 270 mM trehalose from pH 3.0 to pH 8.0 were prepared and the peptide drug substance was added to each buffer so as to provide a predetermined peptide concentration. The mixture was stirred and allowed to stand at room temperature for 24 hours to evaluate whether the peptide drug substance was dissolved.

[4] = Test Example 3: peptide stability in solution (HPLC); details: for % difference vs T = 0 / Conc.: buffers as Table 3; for T0 Conc.: time of preparation, buffers: SEQ1 pH 3.5 50 mM Gly-HCl + 200 mM trehalose, SEQ2 pH 4.0, SEQ3 pH 7.0, SEQ4 pH 6.0 in 10 mM citrate + 270 mM trehalose
Procedure: Based on the results of Test Example 1 and Test Example 2, the stability of the peptides was examined. First, peptide drug substances (purity 95 w/w % or more, PPL) were dissolved in the buffers shown in Table 3, respectively, to prepare peptide solutions of the peptides of SEQ ID NOs: 1 to 4 at the final concentration of 10 mg/mL. […] In the evaluation, samples were collected at the time of preparation of the peptide solution, after 24 hours, and after 48 hours, and stored at −20° C. The peptide concentration was measured by HPLC after all the samples were collected, and compared with the peptide concentration at the time of preparation (T=0).

[5] = Preparation Example 2: stability of lyophilized peptide cocktail preparation; details: T = 1 (1 month at 25° C., humidity 60%)
Procedure: To produce a lyophilized peptide cocktail preparation and confirm the stability of the preparation, 500 mL of a peptide cocktail preparation was prepared in the same manner as in Example 1, and then the preparation was aseptically filled to a glass vial at 1 mL per vial and lyophilized to provide a lyophilized peptide cocktail preparation. Then, immediately after the preparation (T=0) or after storage at room temperature (25° C., humidity 60%) for 1 month from the preparation (T=1), 1 mL of purified water was added to the lyophilized preparation to dissolve the peptides. Appearance, solubility, peptide stability, and pH were evaluated.

Compound	% difference vs T = 0 ([4]; T = 24 h, 25° C./60% RH)	Conc. ([4]; T = 24 h, 25° C./60% RH)	% difference vs T = 0 ([4]; T = 24 h, 40° C./75% RH)	Conc. ([4]; T = 24 h, 40° C./75% RH)	% difference vs T = 0 ([4]; T = 48 h, 25° C./60% RH)	Conc. ([4]; T = 48 h, 25° C./60% RH)	% difference vs T = 0 ([4]; T = 48 h, 40° C./75% RH)	Conc. ([4]; T = 48 h, 40° C./75% RH)	T0 Conc. [4]	HPLC analysis: peptide concentration ([2]; T = 0 hour)	HPLC analysis: peptide concentration ([2]; T = 6 hours, room temperature)	HPLC analysis: % vs T0 ([2]; room temperature)	change in peptide amount % vs T = 0 (100%) (HPLC analysis) [5]	further results
CC(C)C[C@H](NC(=O)[C@@H]1CCCN1C(=O)[C@H](C)NC(=O)[C@H](CC(N)=O)NC(=O)[C@H](Cc1ccccc1)NC(=O)[C@H](Cc1ccccc1)NC(=O)[C@H](Cc1c[nH]cn1)NC(=O)[C@H](CC(C)C)NC(=O)[C@@H](NC(=O)[C@@H](N)CC(N)=O)C(C)C)C(=O)O [SEQ ID NO: 1, Asn-Val-Leu-His-Phe-Phe-Asn-Ala-Pro-Leu] (H-NVLHFFNAPL-OH; N-terminus and C-terminus assumed)	–	–	–	–	–	–	–	–	–	–	–	–	–	result (solubility) ([1]; glycine-HCl buffer pH 2.5, glycine 10 mM (0.75 mg/mL), final conc. of peptide 20 mg/mL, mass ratio peptide/glycine 26.67): dissolved; result (solubility) ([1]; glycine-HCl buffer pH 3, glycine 10 mM (0.75 mg/mL), final conc. of peptide 20 mg/mL, mass ratio 26.67): dissolved; result (solubility) ([1]; glycine-HCl buffer pH 3.5, glycine 10 mM (0.75 mg/mL), final conc. of peptide 20 mg/mL, mass ratio 26.67): dissolved; result (solubility) ([1]; glycine-HCl buffer pH 3.5, glycine 50 mM (3.75 mg/mL), final conc. of peptide 10 mg/mL, mass ratio 2.67): dissolved; result (solubility) ([1]; glycine-HCl buffer pH 3.5, glycine 50 mM (3.75 mg/mL), final conc. of peptide 25 mg/mL, mass ratio 6.67): white turbid; result (solubility) ([1]; glycine-HCl buffer pH 3.5, glycine 100 mM (7.5 mg/mL), final conc. of peptide 10 mg/mL, mass ratio 1.33): dissolved; result (solubility) ([1]; glycine-HCl buffer pH 3.5, glycine 100 mM (7.5 mg/mL), final conc. of peptide 25 mg/mL, mass ratio 3.33): white turbid; result (solubility) ([1]; glycine-HCl buffer pH 3.5, glycine 200 mM (15 mg/mL), final conc. of peptide 10 mg/mL, mass ratio 0.67): dissolved; result (solubility) ([1]; glycine-HCl buffer pH 3.5, glycine 300 mM (22.5 mg/mL), final conc. of peptide 10 mg/mL, mass ratio 0.44): dissolved; result (solubility) ([1]; glycine-HCl buffer pH 3.5, glycine 500 mM (37.5 mg/mL), final conc. of peptide 25 mg/mL, mass ratio 0.67): white turbid; solubility (summary of Table 2) ([1]; peptide concentration of 25 mg/mL, even when glycine concentration was 500 mM): could not be dissolved; stability / precipitation in the cocktail preparation ([2]; pH 4.9): stable without precipitation; solubility (summary of Table 1) ([3]; any of the conditions (pH 3.0 to 8.0), final concentration of 20 mg/mL): could not be dissolved
Ala-Ser-Leu-Asp-Ser-Asp-Pro-Trp-Val (ASLDSDPWV) [SEQ ID NO: 2]	0%	10850 µg/mL	−6%	10240 µg/mL	−5%	10370 µg/mL	−20%	8760 µg/mL	10.89 mg/mL	SEQ ID NO: 2: 2.7 mg/mL	2.8 mg/mL	107.0%	SEQ ID NO: 2: 100.4%	degraded ([4]; stored at 75% humidity for 48 hours): 20%; result (whether peptide drug substance was dissolved) ([3]; 10 mM Citrate pH 3.0, 270 mM trehalose, final conc. 66.67 mg/mL): dissolved; result (whether peptide drug substance was dissolved) ([3]; 10 mM Citrate pH 3.5, 270 mM trehalose, final conc. 66.67 mg/mL): dissolved; result (whether peptide drug substance was dissolved) ([3]; 10 mM Citrate pH 4.0, 270 mM trehalose, final conc. 100 mg/mL): dissolved; result (whether peptide drug substance was dissolved) ([3]; 10 mM Citrate pH 5.0, 270 mM trehalose, final conc. 100 mg/mL): dissolved; result (whether peptide drug substance was dissolved) ([3]; 10 mM Citrate pH 6.0, 270 mM trehalose, final conc. 100 mg/mL): dissolved; result (whether peptide drug substance was dissolved) ([3]; 10 mM Phosphate pH 7.0, 270 mM trehalose, final conc. 100 mg/mL): dissolved; result (whether peptide drug substance was dissolved) ([3]; 10 mM Phosphate pH 7.5, 270 mM trehalose, final conc. 100 mg/mL): dissolved; result (whether peptide drug substance was dissolved) ([3]; 10 mM Phosphate pH 8.0, 270 mM trehalose, final conc. 100 mg/mL): dissolved
KLKHYGPGWV [SEQ ID NO: 3]	2%	11420 µg/mL	4%	11700 µg/mL	4%	11630 µg/mL	4%	11740 µg/mL	11.23 mg/mL	SEQ ID NO: 3: 2.5 mg/mL	2.7 mg/mL	107.7%	SEQ ID NO: 3: 104.5%	result (whether peptide drug substance was dissolved) ([3]; 10 mM Citrate pH 3.0, 270 mM trehalose, final conc. 200 mg/mL): dissolved; result (whether peptide drug substance was dissolved) ([3]; 10 mM Citrate pH 3.5, 270 mM trehalose, final conc. 200 mg/mL): dissolved; result (whether peptide drug substance was dissolved) ([3]; 10 mM Citrate pH 4.0, 270 mM trehalose, final conc. 200 mg/mL): dissolved; result (whether peptide drug substance was dissolved) ([3]; 10 mM Citrate pH 5.0, 270 mM trehalose, final conc. 200 mg/mL): dissolved; result (whether peptide drug substance was dissolved) ([3]; 10 mM Citrate pH 6.0, 270 mM trehalose, final conc. 200 mg/mL): dissolved; result (whether peptide drug substance was dissolved) ([3]; 10 mM Phosphate pH 7.0, 270 mM trehalose, final conc. 200 mg/mL): dissolved; result (whether peptide drug substance was dissolved) ([3]; 10 mM Phosphate pH 7.5, 270 mM trehalose, final conc. 200 mg/mL): dissolved; result (whether peptide drug substance was dissolved) ([3]; 10 mM Phosphate pH 8.0, 270 mM trehalose, final conc. 200 mg/mL): dissolved
LLQAEAPRL [SEQ ID NO: 4]	−1%	10470 µg/mL	1%	10680 µg/mL	−4%	10160 µg/mL	−1%	10470 µg/mL	10.61 mg/mL	SEQ ID NO: 4: 2.8 mg/mL	3.0 mg/mL	106.4%	SEQ ID NO: 4: 101.2%	result (whether peptide drug substance was dissolved) ([3]; 10 mM Citrate pH 3.0, 270 mM trehalose, final conc. 20 mg/mL): dissolved; result (whether peptide drug substance was dissolved) ([3]; 10 mM Citrate pH 3.5, 270 mM trehalose, final conc. 20 mg/mL): dissolved; result (whether peptide drug substance was dissolved) ([3]; 10 mM Citrate pH 4.0, 270 mM trehalose, final conc. 28.6 mg/mL): dissolved; result (whether peptide drug substance was dissolved) ([3]; 10 mM Citrate pH 5.0, 270 mM trehalose, final conc. 20 mg/mL): dissolved; result (whether peptide drug substance was dissolved) ([3]; 10 mM Citrate pH 6.0, 270 mM trehalose, final conc. 28.6 mg/mL): dissolved; result (whether peptide drug substance was dissolved) ([3]; 10 mM Phosphate pH 7.0, 270 mM trehalose, final conc. 25 mg/mL): dissolved; result (whether peptide drug substance was dissolved) ([3]; 10 mM Phosphate pH 7.5, 270 mM trehalose, final conc. 25 mg/mL): dissolved; result (whether peptide drug substance was dissolved) ([3]; 10 mM Phosphate pH 8.0, 270 mM trehalose, final conc. 25 mg/mL): dissolved
